According to patent US20250027068:
Residue numbers refer to the chain shown, from its start.

B1: PRT-468 (protein)
chain: MITSVWTKGVTPPTDFIKGEDVFHAPYKAGQGWYDITKAFDGGDDLLCGAATAGNMLHWWFDQNKDQIERYLKEHPEKQKINFNGEQMFDVKEAIDTKDSQTNSELFNYFKEKAFPYLSTKHLGVFPDHVLDMFINGYRLSLTNHGPTPVKEGSKDPRGGIFDAVFTRGDQSKLLTSRHDLKNKTLNEISQLIKQELTEGKALGLSHTYANVRINHVINLWGADFDAEGNLEAIYVTDSDSNASIGMKKYFVGVNSAGKVAISAKEIKEDNIGAQVLGLFTLSTGQDIWNQTNLEHHHHHH
B2: PRT-454 (protein)
chain: MITSVWTKGVTPPTDFIKGEDVFHAPYKAGQGWYDITKAFDGGDDLLCGAATAGNMLHWWFDQNKDQIEAYLKEHPEKQKINFNGEQMFDVKEAIDTKDDQTNSELFNYFKEKAFPYLSTKHLGVFPDHVLDMFINGYRLSLTNHGPTPVKRQEKDPRGGIFDAVFGRGDQTKLLTSRHDFKEKTLNEISQLIKQELTEGKALALSHTYANVRINHVINLWGADFDAEGNLEAIYVTDSDSNASIGMKKYFVGVNSAGKVAISAKEIEDDNIGAQVLGLFTLSTGQKIWNKTNLEHHHHHH
B3: PRT-618 (protein)
chain: MQITSVWTKGVIPLTPEQFRYNNEDVIHAPYLPHQGWYDITKAFDGGDNLLCGAATAGNMLHWWFDQNKTEIEAYLSKYPEKQKIIFNNQELFDLRAAINTKDSQTNSQLFNYFRDKAFPNLSARQLGVMPDLVLDMFINGYYLNVFKTQSTDVNRPYQDRDKRGGIFDHVFGRGDQTTLLTARHDLKNGGLNDISTIIKQELQSGRALALSHTYANVSISHVINLWGADFNAEGNLEAIYVTDSDANSSIGMKKYYVGINAHGHVAISAKKIEGENIGAQVLGLFTLSSGKEIWQKLSLEHHHHHH
B4: PRT-494 (protein)
chain: MVTSVWTKGVTPPTDFIKGEDVFHAPYKAGQGWYDITKTFNGKDDLLCGAATAGNMLHWWFDQNKEYIEAYLKKHPEKQKIMFGDQELLDVRKAINTKGSQKNSELFNYFRDKAFPNLSARRLGVMPDLVLDMFINGYYLNVTKTQTTDVNRTYQEKDKRGGIFDAVFTRGDQSKLLTSRHDFKEKGLKEISDLIKQELTEGKALGLSHTYANVRINHVINLWGADFDSDGNLKAIYVTDSDSNASIGMKKYFVGVNSAGKVAISAKEIKEDNIGAQVLGLFTLSTGQDIWNQTNLEHHHHHH
B5: PRT-491 (protein)
chain: MVTSVWTKGVTPPTDFIYGEDVLHAPYKAGQGWYDITKTFNGKDNLLCGAATAGNMLHWWFDQNKEQIENYLKKHPEKQKIIFNNQELFDLKAAIDTKDSQLDSKLFEYFKEKAFPYLSTKHLGVFPDHVIDMFINGYRLSLTNHGPTPVKRGSKDKRGGIFDAVFTRGVQSKLLTNRHDLKNKTLKEISDLIKQELTEGKALGISHTYANVRINHVINLWGADFDAEGNLEAIYVTDSDTNASIGMKKYFVGVNSNGKVAISAKEIEEDNIGAQVLGLFTLSTGQDIWNQTNLEHHHHHH
B6: PRT-670 (protein)
chain: MQITSVWTKGVTPLTPEQFRNNNEDVFHAPYLPNQGWYDITKAFNGKDNLLCGAATAGNMLHWWFDQNKEEIEAYLKKYPEKQKIIFNNQELFDLRKAINTKDSQTNSALFNYFRDKAFPNLSARQLGVMPDHVLDMFINGYYLNVGKTQSTDVNRPYQDKDKRGGIFDHVFNRGDQTKLLTARHDLKNKTLNDISTLIKQELSSGKALALSHTYANVGISHVINLWGADFNAEGNLEAIYVTDSDDRASIGMKKYYVGRNASGHVAISAKKIEGENLGAQVLGLFTLSSGKEIWQKLSLEHHHHHH
B7: PRT-512 (protein)
chain: MITSVWTKGVTPPAKFTQGEDVFHAPYVANQGWYDITKAFDGGDDLLCGAATAGNMLHWWFDQNKEEIEAYLKKHPEKQKIMFGDQELLDVRKVINTKDSQTNSALFNYFKDKAFPNLSARRLGVMPDLVLDMFINGYYLNVYKTQTTDVNRTYQTKDRRGGIFDAVFTRGDQSKLLTERHDLKNKTLKEISDLIKQELTEGKALGLSHTYANVRINHVINLWGADFDSNGNLEAIYVTDSDSNASIGMKKYFVGVNSAGKVAISAKEIKEDNIGAQVLGLFTLSTGQDIWNQTNLEHHHHHH
B8: PRT-502 (protein)
chain: MITSVWTKGVTPPTDFIKGEDVFHAPYKAGQGWYDITKAFDGGDDLLCGAATAGNMLHWWFDQNKEYIEAYLKKHPEKQKIMFGDQELLDVRKAINTKGSQKNSELFNYFRDKAFPNLSARRLGVMPDLVLDMFINGYYLNVTKTQTTDVNRQEQEKDKRGGIFDAVFGRGDQTKLLTSRHDFKEKGLNEISQLIKQELTEGKALGLSHTYANVRINHVINLWGADFDADGNLEAIYVTDSDSNASIGMKKYFVGVNSAGKVAISAKEIKEDNIGAQVLGLFTLSTGQKIWNKTNLEHHHHHH
B9: PRT-506 (protein)
chain: MITSVWTKGVTPPTDFIKGEDVFHAPYKAGQGWYDITKTFNGKDDLLCGAATAGNMLHWWFDQNKEEIEAYLKKHPEKQKIMFGDQELLDVRKVINTKDSQTNSALFNYFKDKAFPNLSARRLGVMPDLVLDMFINGYYLNVYKTQTTDVNRTYQTKDRRGGIFDAVFTRGDQSKLLTERHDFKEKTLKEISDLIKQELTEGKALGLSHTYANVRINHVINLWGADFDSNGNLEAIYVTDSDSNASIGMKKYFVGVNSAGKVAISAKEIKEDNIGAQVLGLFTLSTGQDIWNQTNLEHHHHHH
B10: PRT-480 (protein)
chain: MITSVWTKGVTPPTDFIYGEDVLHAPYKAGQGWYDITKAFDGGDDLLCGAATAGNMLHWWFDQNKEQIENYLKKHPEKQKINFNGEQMFDVKEAIDTKDSQTNSELFNYFKEKAFPYLSTKHLGVFPDHVIDMFINGYRLSLTNHGPTPVKRGSKDPRGGIFDAVFTRGDQSKLLTNRHDLKNKTLNEISQLIKQELTEGKALGISHTYANVRINHVINLWGADFDAEGNLEAIYVTDSDSNASIGMKKYFVGVNSNGKVAISAKEIEEDNIGAQVLGLFTLSTGQDIWNQTNLEHHHHHH
B11: PRT-476 (protein)
chain: B10 chain with I2V, D15N, I17T, K28V, G30N, N187K, Q191D
B12: PRT-478 (protein)
chain: B10 chain with G153Q, S154E, T167G, S172T, L181F, N183E, D287K, Q291K
B13: PRT-458 (protein)
chain: MVTSVWTKGVTPPTDFIKGEDVFHAPYKAGQGWYDITKTFNGKDDLLCGAATAGNMLHWWFDQNKDQIERYLKEHPEKQKINFNGEQMFDVKEAIDTKDSQTDSKLFEYFKEKAFPYLSTKHLGVFPDHVLDMFINGYRLSLTNHGPTPVKEGSKDPRGGIFDAVFTRGDQSKLLTSRHDFKEKTLKEISDLIKQELTEGKALGLSHTYANVRINHVINLWGADFDSEGNLKAIYVTDSDSNASIGMKKYFVGVNSAGKVAISAKEIKEDNIGAQVLGLFTLSTGQDIWNQTNLEHHHHHH
B14: PRT-448 (protein)
chain: B13 chain with R70A, S100D, D103N, F181L, E183N, G204A, E228N, K232E, K268E, E269D

Target: pooled human IgG (human IgG1,2,3 and 4)

| Protein | Enzyme Activity Endpoint Assay: Fab′2 [ng/µL] | Enzyme Activity Endpoint Assay: Fc [ng/µL] | Enzyme Activity Endpoint Assay: IgG [ng/µL] | Enzyme Activity Endpoint Assay: scIgG [ng/µL] |
| --- | --- | --- | --- | --- |
| B1 | 957 | 385 | 115 | 66 |
| B2 | 217 | 317 | 94 | 653 |
| B3 | 976 | 419 | 0 | 0 |
| B4 | 1210 | 489 | 0 | 0 |
| B5 | 769 | 260 | 140 | 331 |
| B6 | 0 | 174 | 594 | 798 |
| B7 | 884 | 372 | 31 | 0 |
| B8 | 307 | 283 | 66 | 296 |
| B9 | 1120 | 453 | 43 | 0 |
| B10 | 846 | 325 | 0 | 0 |
| B11 | 0 | 0 | 2090 | 0 |
| B12 | 509 | 453 | 216 | 362 |
| B13 | 598 | 224 | 112 | 226 |
| B14 | 0 | 0 | 2150 | 0 |
